Laboratory results from publication doi:10.1101/2024.09.19.613683 (bioRxiv, 2024).

B1: tail tube protein of phage 812 (natural protein, Staphylococcus phage 812)
chain: MASEAKQTVHTGNTVLLMIKGKPVGRAQSASGQREYGTTGVYEIGSIMPQEHVYLRYEGTITVERLRMKKENFADLGYASLGEEILKKDIIDILVVDNLTKQVIISYHGCSANNYNETWQTNEIVTEEIEFSYLTASDKART
B2: tail sheath protein of phage 812 (natural protein, Staphylococcus phage 812)
chain: MAVEPFPRRPITRPHASIEVDTSGIGGSAGSSEKVFCLIGQAEGGEPNTVYELRNYSQAKRLFRSGELLDAIELAWGSNPNYTAGRILAMRIEDAKPASAEIGGLKITSKIYGNVANNIQVGLEKNTLSDSLRLRVIFQDDRFNEVYDNIGNIFTIKYKGEEANATFSVEHDEETQKASRLVLKVGDQEVKSYDLTGGAYDYTNAIITDINQLPDFEAKLSPFGDKNLESSKLDKIENANIKDKAVYVKAVFGDLEKQTAYNGIVSFEQLNAEGEVPSNVEVEAGEESATVTATSPIKTIEPFELTKLKGGTNGEPPATWADKLDKFAHEGGYYIVPLSSKQSVHAEVASFVKERSDAGEPMRAIVGGGFNESKEQLFGRQASLSNPRVSLVANSGTFVMDDGRKNHVPAYMVAVALGGLASGLEIGESITFKPLRVSSLDQIYESIDLDELNENGIISIEFVRNRTNTFFRIVDDVTTFNDKSDPVKAEMAVGEANDFLVSELKVQLEDQFIGTRTINTSASIIKDFIQSYLGRKKRDNEIQDFPAEDVQVIVEGNEARISMTVYPIRSFKKISVSLVYKQQTLQA

Experiments:
[1] = target: B2; experiment: cryo-EM structure
cryo-EM structure = target: the molecule itself; experiment: cryo-EM structure

Row | Binder | binding result [1] | binding result (cryo-EM structure)
1 | B1 | binds | 
2 | B2 |  | binds
